Data on 1 molecule can be found in patent US20130115589A1 (UNIVERSITY OF TOKYO, published 2013).

The target in this test is T1, wild-type glycoprotein B (gB) of HSV-1(F) (Herpes simplex virus 1 (HSV-1(F)), UniProt P06436 30-903).
T1 construct: whole, on cells; also called wild-type gB
The test is described as follows: flow cytometry on infected 293T cells, PE-labeled anti-human IgG secondary antibody.

B1: NMHC-IIArod-Ig (fusion protein of the C terminal fragment of NMHC-IIA and Ig) (Fc fusion)
chain: LAQAKENEKKLKSMEAEMIQLQEELAAAERAKRQAQQERDELADEIANSSGKGALALEEKRRLEARIAQLEEELEEEQGNTELINDRLKKANLQIDQINTDLNLERSHAQKNENARQQLERQNKELKVKLQEMEGTVKSKYKASITALEAKIAQLEEQLDNETKERQAACKQVRRTEKKLKDVLLQVDDERRNAEQYKDQADKASTRLKQLKRQLEEAEEEAQRANASRRKLQRELEDATETADAMNREVSSLKNKLRRGDLPFVVPRRMARKGAGDGSDEEVDGKADGAEAKPAE
notes: also called soluble C-terminal fragment of NMHC-IIA; soluble form of NMHC-IIA
For B1, the binding result is “binds”.
